# According to US20240043824A1 (UNIVERSITE DE LORRAINE, published 2024):
# B1: Prx1 from Pyrococcus furiosus (Pfu-Prx) in which the cysteine residues have been mutated into serine residues (enzyme)
# chain: MIVIGEKFPEVEVKTTHGVIKLPDHFTKQGKWFMLFSHPADFTPVSTTEFYGLQIRLEKFRELGVEPIGLSVDQVFSHLKWMEWIKEKLGVEIEFPVIADDRGDLAEKLGMIPSGSTITARAVFIVDDKGIIRAIVYYPAEVGRDWDEILRLVKALKISTEKGVALPHKWPNNELIGDKVIVPPASSVEQIKEREEAKAKGEIESYDWWFSYKKLE
# notes: not described
# Molecular target: the molecule itself
# Assay: ITC dilution of a 100 µM stock at 25° C.; self-association of the decamer, no CTC could be determined
protein,measurement,value
B1,binding result,binds
